± gives the standard deviation of the averaged measurements.
Test system: ATP
Assay: switch fluorescence ratio, 500 uM ATP over buffer (Cy3 cluster intensity, sum of 5 cycles each) (fold (ratio)); higher = stronger signal-on switching upon ATP binding; sequences stand for … in TCGTCGGCAGCGTCAGATGTGTATAAGAGACAGTTTTTTTTTTTTTTTTTTTTTTTTT…TC
Conditions: aptamer strand: ATP DNA aptamer (quencher-CACCTGGGGGAGTATTGCGGAGGAAGG + anchor), 100 nM annealed; ATP concentration: 500 uM
In short: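 Imaging in selection buffer was followed by imaging after 15 min with 500 uM ATP at 22 °C, for Cy3-labelled switching-strand clusters annealed to 100 nM quencher-labelled ATP aptamer on a modified Illumina MiSeq flow-cell. Five of these buffer/ATP cycles ran, separated by NaOH stripping and re-annealing. The fluorescence ratio per cluster is summed target-cycle over summed buffer-cycle Cy3 intensity, averaged per switch-domain sequence; clusters outside 100-1000 RFU were removed.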
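Also: ATP exposure 15 min at 22 °C before imaging.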

Row | Sequence | switch fluorescence ratio
1 | AGTAAATAGT | 1.0008 ± 3.6e-05
2 | CAGTTGAGAA | 1.02 ± 0.011
3 | CGTCTAAGCG | 1 ± 0.086
4 | TGCCAGTGTT | 1.22 ± 0.32
5 | TTTTTAGCGT | 0.995 ± 0.027
6 | TTCAAGCGTT | 0.982 ± 0.019
7 | ATGTCTTGAT | 0.963 ± 0.014
8 | GGGTTGGTCA | 0.994 ± 0.0094
9 | AGGTGAATGG | 1.02 ± 0.03
10 | GGGTGGTATT | 1.03 ± 0.013
11 | AAAGGTTGCT | 1.007 ± 0.01
12 | GCACCCGTAC | 1.52 ± 0.037
13 | TTTCTGAGCT | 1.08 ± 0.068
14 | GAGGGACGGG | 1.02 ± 0.025
15 | GATAATTGAG | 1.04 ± 0.044
16 | AGCTTAGGGA | 0.99 ± 0.036
17 | TTGGATGGAA | 0.984 ± 0.023
18 | AGGGACGCGC | 1.07 ± 0.018
19 | TAAGCAGGTT | 0.995 ± 0.017
20 | TTGGGAGTAC | 0.942 ± 0.059
21 | AGGTTGGGCA | 0.984 ± 0.0096
22 | TTTTGGGGAT | 1.01 ± 0.026
23 | TGGCAATGGG | 1.05 ± 0.017
24 | GTTGGGGGGC | 0.992 ± 0.036
25 | CAGGGAATTG | 0.989 ± 0.075

Row | Sequence | switch fluorescence ratio
26 | CGTATGGGGC | 0.948 ± 0.087
27 | TATGGCGGTC | 0.92422 ± 0.00078
28 | TTTCGATATT | 0.989 ± 0.019
29 | TAATGGGAAA | 1.04 ± 0.013
30 | CGTTTTTAAT | 1.01 ± 0.021
31 | CGGGTATTAA | 0.994 ± 0.032
32 | ACTTTCCACA | 1.17 ± 0.027
33 | TCAGAAATAG | 1.24 ± 0.15
34 | AGTCCAGTTT | 0.986 ± 0.013
35 | AAAGATGCGG | 1.01 ± 0.066
36 | TTATGCGGGG | 0.995 ± 0.046
37 | AGGGTTAATG | 1.05 ± 0.017
38 | ACAGAGGGAG | 1.02 ± 0.011
39 | GGGTTATATT | 0.988 ± 0.024
40 | TGGGGAATAA | 1.01 ± 0.022
41 | GCCTCAGGAT | 0.996 ± 0.068
42 | TTTGTGAGAA | 1.02 ± 0.0045
43 | ATGGGAGGAT | 1.018 ± 0.0027
44 | TTGGCTGTGC | 1.02 ± 0.019
45 | TCCAGTATGG | 1.012 ± 0.008
46 | ACTGTAGTTT | 1.11 ± 0.07
47 | TTAGAAGTGG | 0.988 ± 0.025
48 | GATTGGGTTC | 0.9685 ± 0.0036
49 | CTGTGGCTAT | 1.01 ± 0.023
50 | ATATTTGGGC | 0.975 ± 0.034

Row | Sequence | switch fluorescence ratio
51 | AGCTTCTTAA | 0.992 ± 0.068
52 | TTTTAAGGTG | 1.39 ± 0.055
53 | AGTATATCTT | 0.98 ± 0.012
54 | TATGGGGGA | 1.01 ± 0.069
55 | TGTAAAGGGG | 1.01 ± 0.029
56 | GCTTAATACT | 1.37 ± 0.054
57 | TTGGCGGGTT | 1.008 ± 0.0062
58 | TTTTCGGTAG | 0.989 ± 0.027
59 | TAAAAGTTTG | 0.996 ± 0.034
60 | GGTGTGGATC | 1.021 ± 0.0029
61 | CGAGGGAGTA | 0.993 ± 0.035
62 | GCTTGTAGCT | 1.02 ± 0.0095
63 | AGTATTTTTT | 0.995 ± 0.01
64 | TCTGTTGGAC | 0.997 ± 0.024
65 | GTTTTCGGGC | 0.987 ± 0.067
66 | AGCCTGTTAG | 0.9892 ± 0.0087
67 | TTGAATCCAT | 1.01 ± 0.019
68 | CTGTGTTTGG | 0.997 ± 0.038
69 | CCTCAGGGGC | 2.39 ± 0.57
70 | CAGCTTATCG | 0.995 ± 0.014
71 | AAAAGGGTTA | 0.9976 ± 0.004
72 | AGTTGGGAGC | 0.991 ± 0.02
73 | TTGTATGGGG | 0.984 ± 0.033
74 | CAAAGGATAC | 1.2 ± 0.013
75 | AGATGTTTCC | 1.04 ± 0.055

Row | Sequence | switch fluorescence ratio
76 | GGGCGGACAG | 0.985 ± 0.019
77 | TGCGGGAAGT | 1 ± 0.014
78 | ATTGGGTCGG | 0.996 ± 0.02
79 | CGGGCATGGG | 1.01 ± 0.029
80 | TCGTTAGAAT | 0.948 ± 0.013
81 | AAGGGGGGGC | 0.998 ± 0.062
82 | TGTTGGGCCC | 1 ± 0.018
83 | CTTAATCTC | 0.968 ± 0.02
84 | CCCGGTCGGC | 0.983 ± 0.0038
85 | AGAATTGTGG | 0.9728 ± 0.0027
86 | ATGCTTATGG | 0.994 ± 0.037
87 | GGTGGGAGTG | 1.37 ± 0.66
88 | GTTGATAGTA | 0.993 ± 0.031
89 | AAATCATTGG | 1.01 ± 0.026
90 | AAGACTGTGC | 1.01 ± 0.022
91 | GACGATGACG | 0.987 ± 0.014
92 | TCGTTGTGCT | 0.964 ± 0.027
93 | ATCCGCTAGT | 2.16 ± 0.19
94 | TATGAGGTTC | 0.983 ± 0.1
95 | TATGTTTTTT | 0.997 ± 0.031
96 | ACGATCGGGC | 1.06 ± 0.05
97 | GCATGGCGGC | 1.01 ± 0.019
98 | GAGAAAACCG | 1.06 ± 0.092
99 | TGAAATATTC | 0.993 ± 0.019
100 | CTAGTTGGTA | 0.994 ± 0.027

Reference: the supplement of paper PMC10126150
